Measured values taken from patent US20220119534A1 (DRAGONFLY THERAPEUTICS, published 2022).
Where “and” joins values, the source holds several entries; their conditions need not be identical. Identical values can stand only once. Blank lines part the entries; values can stand above or below the binder they belong to.

Experiments:
Human CLEC12A-His = biological target: T1, Human CLEC12A-His (human, UniProt Q5QGZ9 65-265); experiment: SPR Biacore 8K 37 C; TriNKET captured on anti-hFc chip, hCLEC12A-His as analyte; 1:1 fit; after 4 wks 40 C in CST pH 7.0, n=2
T1 construct: Recombinant soluble protein made in house (Dragonfly Tx); The hCLEC12A spot of the HuProt array is written under this molecule as well; also called hCLEC12A-His; hCLEC12A; not shown: His tag
T1 sequence: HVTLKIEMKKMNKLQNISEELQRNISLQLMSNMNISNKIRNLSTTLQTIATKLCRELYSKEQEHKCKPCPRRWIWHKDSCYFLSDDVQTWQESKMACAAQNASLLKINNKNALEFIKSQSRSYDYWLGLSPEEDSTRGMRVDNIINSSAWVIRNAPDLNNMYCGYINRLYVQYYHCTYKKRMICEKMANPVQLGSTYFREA

Human CD16a V158 = biological target: T2, Human CD16a V158 (human, UniProt P08637 17-208, biotinylated); experiment: SPR, hCD16a V158 captured, kinetic fit; average for AB0192
T2 construct: Bought recombinant receptor; also called hCD16a (V158); hFcγRIIIa V158

mFc-hNKG2D [1] = biological target: T3, mFc-hNKG2D (human, UniProt P26718 73-216); experiment: SPR, 37 C, mFc-hNKG2D captured, kinetic fit
T3 construct: extracellular domain; Recombinant mFc-tagged NKG2D dimer, made in house; also called human NKG2D; not shown: mouse Fc tag
T3 sequence (looked up): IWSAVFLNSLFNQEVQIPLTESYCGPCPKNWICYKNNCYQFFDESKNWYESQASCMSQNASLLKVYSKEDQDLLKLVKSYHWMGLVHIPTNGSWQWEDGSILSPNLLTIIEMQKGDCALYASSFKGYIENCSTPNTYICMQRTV

mFc-hNKG2D [2] = biological target: T3, mFc-hNKG2D; experiment: SPR, 37 C, mFc-hNKG2D captured, 1:1 kinetic fit
Description: NKG2D is a dimer in nature, therefore recombinant mFc-tagged NKG2D dimer was used for this experiment. […] Two different fits were utilized to obtain the equilibrium affinity data: steady state affinity fit and kinetic fit.

[3] = biological target: T4, recombinant human CLEC12A-His (human, UniProt Q5QGZ9 65-265); experiment: SPR 37C, average
T4 construct: also called hCLEC12A-His; hCLEC12A
T4 sequence: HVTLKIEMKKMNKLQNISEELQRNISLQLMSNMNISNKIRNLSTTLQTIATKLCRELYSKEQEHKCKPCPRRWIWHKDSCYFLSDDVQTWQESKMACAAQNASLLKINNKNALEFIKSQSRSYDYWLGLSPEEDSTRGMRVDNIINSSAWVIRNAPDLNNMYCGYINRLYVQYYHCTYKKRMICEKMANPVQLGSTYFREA

recombinant human CD64 = biological target: T5, recombinant human CD64 (human, UniProt P12314 16-288, biotinylated); experiment: SPR 25C, kinetic fit, average
T5 construct: also called hFcγRI; hCD64
T5 sequence (P12314 16-288 limits assumed): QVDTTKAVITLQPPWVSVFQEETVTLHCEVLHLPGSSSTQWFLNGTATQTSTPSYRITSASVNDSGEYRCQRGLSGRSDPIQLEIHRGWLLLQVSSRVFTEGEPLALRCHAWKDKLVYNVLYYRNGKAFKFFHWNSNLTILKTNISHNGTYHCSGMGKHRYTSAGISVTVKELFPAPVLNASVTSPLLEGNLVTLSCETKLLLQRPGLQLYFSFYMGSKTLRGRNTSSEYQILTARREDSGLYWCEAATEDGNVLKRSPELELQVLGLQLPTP
Protocol: Human and cyno CD64, high and low affinity alleles of CD16a (V158 and F158, respectively), two alleles of CD32a (H131 and R131), CD16b, CD32b and cynomolgus CD16 were captured via biotin on a primed Biacore chip, prepared according to the manufacturer's instructions.
For no-signal reference, a 0 nM blank cycle at the start of each concentration series and receptor free chip surface were used. Each experimental cycle included association, dissociation and regeneration steps. All steps were executed at a flow rate of 30 μL/min and at 25° C.

T2 sequence (P08637 17-208 F176V limits assumed): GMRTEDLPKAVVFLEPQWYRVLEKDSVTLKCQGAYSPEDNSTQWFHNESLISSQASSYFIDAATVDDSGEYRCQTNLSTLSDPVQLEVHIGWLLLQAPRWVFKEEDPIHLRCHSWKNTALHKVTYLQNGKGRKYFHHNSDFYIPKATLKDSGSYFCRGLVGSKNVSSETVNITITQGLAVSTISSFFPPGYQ

- Kd (Human CLEC12A-His): 0.00086 µM
- koff (Human CLEC12A-His): 0.000674 s⁻¹
- kon (Human CLEC12A-His): 784000 M⁻¹ s⁻¹
B1: F3'-1602 TriNKET (bispecific antibody, human IgG1, kappa)
chain: QLQLQESGPGLVKPSETLSLTCTVSGFSLTNYGLHWIRQPPGKCLEWIGVIWSGGKTDYNPSLKSRVTISKDTSKNQFSLKLSSVQAADTAVYYCAKYDYDDSLDYWGQGTLVTVSSGGGGSGGGGSGGGGSGGGGSDIQMTQSPSSLSASVGDRVTITCHASQNINFWLSWYQQKPGKAPKLLIYEASNLHTGVPSRFSGSGSGTRFTLTISSLQPEDIATYYCQQSHSYPLTFGCGTKLEIKGSDKTHTCPPCPAPELLGGPSVFLFPPKPKDTLMISRTPEVTCVVVDVSHEDPEVKFNWYVDGVEVHNAKTKPREEQYNSTYRVVSVLTVLHQDWLNGKEYKCKVSNKALPAPIEKTISKAKGQPREPRVYTLPPCRDELTKNQVSLTCLVKGFYPSDIAVEWESNGQPENNYKTTPPVLVSDGSFTLYSKLTVDKSRWQQGNVFSCSVMHEALHNHYTQKSLSLSPG
heavy: EVQLVESGGGLVKPGGSLRLSCAASGFTFSSYSMNWVRQAPGKGLEWVSSISSSSSYIYYADSVKGRFTISRDNAKNSLYLQMNSLRAEDTAVYYCARGAPIGAAAGWFDPWGQGTLVTVSSASTKGPSVFPLAPSSKSTSGGTAALGCLVKDYFPEPVTVSWNSGALTSGVHTFPAVLQSSGLYSLSSVVTVPSSSLGTQTYICNVNHKPSNTKVDKKVEPKSCDKTHTCPPCPAPELLGGPSVFLFPPKPKDTLMISRTPEVTCVVVDVSHEDPEVKFNWYVDGVEVHNAKTKPREEQYNSTYRVVSVLTVLHQDWLNGKEYKCKVSNKALPAPIEKTISKAKGQPREPQVCTLPPSRDELTENQVSLTCLVKGFYPSDIAVEWESNGQPENNYKTTPPVLDSDGSFFLYSWLTVDKSRWQQGNVFSCSVMHEALHNHYTQKSLSLSPG
light: DIQMTQSPSSVSASVGDRVTITCRASQGISSWLAWYQQKPGKAPKLLIYAASSLQSGVPSRFSGSGSGTDFTLTISSLQPEDFATYYCQQGVSFPRTFGGGTKVEIKRTVAAPSVFIFPPSDEQLKSGTASVVCLLNNFYPREAKVQWKVDNALQSGNSQESVTEQDSKDSTYSLSSTLTLSKADYEKHKVYACEVTHQGLSSPVTKSFNRGEC
notes: Trispecific F3' format: CLEC12A scFv-Fc paired with NKG2D Fab-Fc; Stressed and control samples of the stability studies are the same molecule; also called AB0237

- Kd (Human CD16a V158): 0.178 µM
- koff (Human CD16a V158): 0.0199 s⁻¹
- kon (Human CD16a V158): 112000 M⁻¹ s⁻¹
- Kd (mFc-hNKG2D [1]): 0.77 µM and 0.778 µM and 0.79 µM
- koff (mFc-hNKG2D [2]): 0.143 s⁻¹ and 0.153 s⁻¹
- kon (mFc-hNKG2D [2]): 186000 M⁻¹ s⁻¹ and 196000 M⁻¹ s⁻¹ and 181000 M⁻¹ s⁻¹
B2: AB0192 TriNKET (other)
chain: EVQLVESGGGVVQPGGSLRLSCAASGFTFNAFGMHWVRQAPGKCLEWVAFISSGSTSIYYANTVKGRFTISRDNSKNTLYLQMNSLRAEDTAVYYCARDGYPTGGAMDYWGQGTSVTVSSGGGGSGGGGSGGGGSGGGGSDIQMTQSPSSLSASVGDRVTITCKASQDIYNYLSWFQQKPGKAPKPLIYRANILVSGVPSRFSGSGSGQDYTFTISSLQPEDIATYYCLQFDAFPFTFGCGTKLEIKGSDKTHTCPPCPAPELLGGPSVFLFPPKPKDTLMISRTPEVTCVVVDVSHEDPEVKFNWYVDGVEVHNAKTKPREEQYNSTYRVVSVLTVLHQDWLNGKEYKCKVSNKALPAPIEKTISKAKGQPREPRVYTLPPCRDELTKNQVSLTCLVKGFYPSDIAVEWESNGQPENNYKTTPPVLVSDGSFTLYSKLTVDKSRWQQGNVFSCSVMHEALHNHYTQKSLSLSPG
heavy: EVQLVESGGGLVKPGGSLRLSCAASGFTFSSYSMNWVRQAPGKGLEWVSSISSSSSYIYYADSVKGRFTISRDNAKNSLYLQMNSLRAEDTAVYYCARGAPIGAAAGWFDPWGQGTLVTVSSASTKGPSVFPLAPSSKSTSGGTAALGCLVKDYFPEPVTVSWNSGALTSGVHTFPAVLQSSGLYSLSSVVTVPSSSLGTQTYICNVNHKPSNTKVDKKVEPKSCDKTHTCPPCPAPELLGGPSVFLFPPKPKDTLMISRTPEVTCVVVDVSHEDPEVKFNWYVDGVEVHNAKTKPREEQYNSTYRVVSVLTVLHQDWLNGKEYKCKVSNKALPAPIEKTISKAKGQPREPQVCTLPPSRDELTENQVSLTCLVKGFYPSDIAVEWESNGQPENNYKTTPPVLDSDGSFFLYSWLTVDKSRWQQGNVFSCSVMHEALHNHYTQKSLSLSPG
light: DIQMTQSPSSVSASVGDRVTITCRASQGISSWLAWYQQKPGKAPKLLIYAASSLQSGVPSRFSGSGSGTDFTLTISSLQPEDFATYYCQQGVSFPRTFGGGTKVEIKRTVAAPSVFIFPPSDEQLKSGTASVVCLLNNFYPREAKVQWKVDNALQSGNSQESVTEQDSKDSTYSLSSTLTLSKADYEKHKVYACEVTHQGLSSPVTKSFNRGEC
notes: the condition stands under assay; also called AB0192 Lot AB0192-005

- Kd [3]: 0.0012 µM
- koff [3]: 0.000933 s⁻¹
- kon [3]: 779000 M⁻¹ s⁻¹
- Kd (recombinant human CD64): 0.0052 µM
- koff (recombinant human CD64): 0.00027 s⁻¹
- kon (recombinant human CD64): 52000 M⁻¹ s⁻¹
B3: F3'-1602 TriNKET (other)
chain: QLQLQESGPGLVKPSETLSLTCTVSGFSLTNYGLHWIRQPPGKCLEWIGVIWSGGKTDYNPSLKSRVTISKDTSKNQFSLKLSSVQAADTAVYYCAKYDYDDSLDYWGQGTLVTVSSGGGGSGGGGSGGGGSGGGGSDIQMTQSPSSLSASVGDRVTITCHASQNINFWLSWYQQKPGKAPKLLIYEASNLHTGVPSRFSGSGSGTRFTLTISSLQPEDIATYYCQQSHSYPLTFGCGTKLEIKGSDKTHTCPPCPAPELLGGPSVFLFPPKPKDTLMISRTPEVTCVVVDVSHEDPEVKFNWYVDGVEVHNAKTKPREEQYNSTYRVVSVLTVLHQDWLNGKEYKCKVSNKALPAPIEKTISKAKGQPREPRVYTLPPCRDELTKNQVSLTCLVKGFYPSDIAVEWESNGQPENNYKTTPPVLVSDGSFTLYSKLTVDKSRWQQGNVFSCSVMHEALHNHYTQKSLSLSPG
heavy: EVQLVESGGGLVKPGGSLRLSCAASGFTFSSYSMNWVRQAPGKGLEWVSSISSSSSYIYYADSVKGRFTISRDNAKNSLYLQMNSLRAEDTAVYYCARGAPIGAAAGWFDPWGQGTLVTVSSASTKGPSVFPLAPSSKSTSGGTAALGCLVKDYFPEPVTVSWNSGALTSGVHTFPAVLQSSGLYSLSSVVTVPSSSLGTQTYICNVNHKPSNTKVDKKVEPKSCDKTHTCPPCPAPELLGGPSVFLFPPKPKDTLMISRTPEVTCVVVDVSHEDPEVKFNWYVDGVEVHNAKTKPREEQYNSTYRVVSVLTVLHQDWLNGKEYKCKVSNKALPAPIEKTISKAKGQPREPQVCTLPPSRDELTENQVSLTCLVKGFYPSDIAVEWESNGQPENNYKTTPPVLDSDGSFFLYSWLTVDKSRWQQGNVFSCSVMHEALHNHYTQKSLSLSPG
light: DIQMTQSPSSVSASVGDRVTITCRASQGISSWLAWYQQKPGKAPKLLIYAASSLQSGVPSRFSGSGSGTDFTLTISSLQPEDFATYYCQQGVSFPRTFGGGTKVEIKRTVAAPSVFIFPPSDEQLKSGTASVVCLLNNFYPREAKVQWKVDNALQSGNSQESVTEQDSKDSTYSLSSTLTLSKADYEKHKVYACEVTHQGLSSPVTKSFNRGEC
notes: CLEC12A scFv-Fc, NKG2D A49MI Fab-Fc, human IgG1 Fc; also called AB0237
